{
  "source": "patent US20240084259A1",
  "about": "“STEM CELL-DERIVED MATURE CARDIOMYOCYTES AND CARDIOVASCULAR DISEASE MODEL USING SAME” (KOREA UNIVERSITY RESEARCH AND BUSINESS FOUNDATION, priority 2019, published 2024)",
  "molecules": {"B1": {"name": "FGF4: fibroblast growth factor 4 (FGF4), maturation factor added to the differentiation medium (protein, UniProt P08620 31-206, looked up)", "Fibroblast growth factor 4": "APTAPNGTLEAELERRWESLVALSLARLPVAAQPKEAAVQSGAGDYLLGIKRLRRLYCNVGIGFHLQALPDGRIGGAHADTRDSLLELSPVERGVVSIFGVASRFFVAMSSKGKLYGSPFFTDECTFKEILLPNNYNAYESYKYPGMFIALSKNGKTKKGNRVSPTMKVTHFLPRL"}, "B2": {"name": "FGF10: FGF10, maturation factor compared at 10 ng/ml (protein, UniProt O15520 38-208, looked up)", "Fibroblast growth factor 10": "QALGQDMVSPEATNSSSSSFSSPSSAGRHVRSYNHLQGDVRWRKLFSFTKYFLKIEKNGKVSGTKKENCPYSILEITSVEIGVVAVKAINSNYYLAMNKKGKLYGSKEFNNDCKLKERIEENGYNTYASFNWQHNGRQMYVALNGKGAPRRGQKTRRKNTSAHFLPMVVHS"}},
  "type_in_all_cases": "cell-based",
  "key": {"[1]": {"test_system": "human embryonic stem cells (BG01 cell line)", "experiment": "Morphology and beating of cardiomyocytes differentiated from stem cells (optical microscope)", "conditions": "FGFs 10 ng/ml, ascorbic acid 200 μg/ml; for day of differentiation on which beating cardiomyocytes were observed: control group 9th day; for cell morphology: treatment from 5th to 15th day of differentiation, vs control group", "method": "In order to increase the differentiation efficiency of stem cells into cardiomyocytes and to improve differentiation by cardiomyocyte type and mature differentiation, conditions for monolayer differentiation of human embryonic stem cells (BG01 cell line) into cardiomyocytes were established.\nAn E8 culture medium (STEMCELL Technologies) containing a 2 μM ROCK inhibitor (thiazovivin) was added to a 6-well culture plate coated with Matrigel, and embryonic stem cells dissociated into single cells using Accutase were seeded at 2.5×10^5 cells per well. Culture was carried out for about 3 days, and the E8 culture medium was exchanged until confluence of the 6-well culture plate with the cells. When confluence of the 6-well plate with the human embryonic stem cells was achieved, CHIR99021 (Sigma-Aldrich) as a GSK-3 inhibitor was added at a concentration of 6 μM to a CDM3 culture medium (containing RPMI 1640, serum albumin and ascorbic acid as three chemically verified components, P. W. Burridge et al., Nature Methods 11:855, 2014), followed by culture for 24 hours. Then, on the 2nd day of differentiation, 5 μM IWP2 (Inhibitor of Wnt Production 2) was added to the medium, followed by culture for 2 days. After addition of 10 ng/ml FGF2, 10 ng/ml FGF4, 10 ng/ml FGF10, 200 μg/ml ascorbic acid, and 10 ng/ml FGF4+200 μg/ml ascorbic acid on the 5th day of differentiation, culture was carried out until the 15th day of differentiation while the culture medium was exchanged every 48 hours with an RPMI+B27(-Insulin) medium (FIG. 1a)."}, "[2]": {"test_system": "human embryonic stem cells (BG01)", "experiment": "Polymerase chain reaction for cell lineage markers during differentiation into cardiomyocytes", "conditions": "15th day, treated 5th to 15th day; FGFs 10 ng/ml, ascorbic acid 200 μg/ml; vs control group", "from_the_text": "(§1) In order to investigate the effect of FGF2 on differentiation by cardiomyocyte type, mature differentiation of cardiomyocytes, and differentiation of vascular smooth muscle cells, the expression of a cardiomyocyte marker (cTnT), mature cardiomyocyte marker (cTnI), ventricular cardiomyocyte marker (MLC2v), atrial cardiomyocyte markers (MLC2a, ANP), nodal cardiomyocyte markers (HCN4, TBX18), vascular smooth muscle cell markers (SMA, SM22), and vascular endothelial cell marker (CD31) in the control group and the group treated with 10 ng/ml FGF2 for 10 days from the 5th day to the 15th day during the differentiation of human embryonic stem cells (BG01) into cardiomyocytes was determined through polymerase chain reaction using primers for each cell lineage marker.\nas §1, with “of FGF10” for “of FGF2”, “of the” for “of a”, “ng/ml FGF10” for “ng/ml FGF2”\nas §1, with “of ascorbic acid” for “of FGF2”, “of the” for “of a”, “with 200 μg/ml ascorbic acid” for “with 10 ng/ml FGF2”\nas §1, with “of FGF4” for “of FGF2”, “of the” for “of a”, “ng/ml FGF4” for “ng/ml FGF2”"}, "[3]": {"test_system": "human embryonic stem cells (BG01)", "experiment": "Immunofluorescence staining of cardiomyocyte type markers", "conditions": "10 ng/ml FGF4 or 10 ng/ml FGF4+200 μg/ml ascorbic acid", "method": "In order to investigate the effect of treatment with FGF4 alone and co-treatment with FGF4+ascorbic acid on type-specific differentiation and mature differentiation of human embryonic stem cells into cardiomyocytes, differences in expression of the cardiomyocyte marker (cTnT), ventricular cardiomyocyte marker (MLC2v), and atrial cardiomyocyte marker (MLC2a) after treatment with 10 ng/ml FGF4 or co-treatment with 10 ng/ml FGF4+200 μg/ml ascorbic acid for 10 days from the 5th day to the 15th day during the differentiation of human embryonic stem cells (BG01) into cardiomyocytes was confirmed through immunofluorescence staining (FIG. 7)."}, "[4]": {"test_system": "human embryonic stem cells", "experiment": "FGF4 concentration series, polymerase chain reaction for MLC2v, MLC2a, TBX18, SMA", "method": "In order to determine the appropriate concentration of FGF4 on the increase in gene expression of the ventricular cardiomyocyte marker (MLC2v), atrial cardiomyocyte marker (MLC2a), nodal cardiomyocyte marker (TBX18), and vascular smooth muscle cell marker (SMA) from human embryonic stem cells, after treatment with FGF4 at various concentrations for 10 days from the 5th day to the 15th day of differentiation, polymerase chain reaction was performed using primers for MLC2v, MLC2a, TBX18, and SMA."}},
  "data": [
    {"molecule": "FGF2: FGF2, maturation factor compared at 10 ng/ml", "values": [
      {"measurement": "day of differentiation on which beating cardiomyocytes were observed", "setting": "[1]", "result": 9, "unit": "days"},
      {"measurement": "cell morphology", "setting": "[1]", "result": "morphological changes similar to the control group"},
      {"measurement": "expression of atrial cardiomyocyte marker ANP (mRNA)", "setting": "[2]", "result": "significantly increased"},
      {"measurement": "expression of mature cardiomyocyte marker cTnI (mRNA)", "setting": "[2]", "result": "no effect"},
      {"measurement": "expression of nodal cardiomyocyte marker HCN4 (mRNA)", "setting": "[2]", "result": "significantly decreased"},
      {"measurement": "expression of nodal cardiomyocyte marker TBX18 (mRNA)", "setting": "[2]", "result": "significantly decreased"},
      {"measurement": "expression of vascular endothelial cell marker CD31 (mRNA)", "setting": "[2]", "result": "significantly increased"},
      {"measurement": "expression of vascular smooth muscle cell marker SM22 (mRNA)", "setting": "[2]", "result": "significantly decreased"},
      {"measurement": "expression of vascular smooth muscle cell marker SMA (mRNA)", "setting": "[2]", "result": "significantly decreased"},
      {"measurement": "expression of ventricular cardiomyocyte marker MLC2v (mRNA)", "setting": "[2]", "result": "no effect"}
    ]},
    {"molecule": "O=C1O[C@H]([C@@H](O)CO)C(O)=C1O", "note": "[ascorbic acid, reference compound]", "values": [
      {"measurement": "day of differentiation on which beating cardiomyocytes were observed", "setting": "[1]", "result": 9, "unit": "days"},
      {"measurement": "cell morphology", "setting": "[1]", "result": "relatively flat morphology"},
      {"measurement": "expression of atrial cardiomyocyte marker ANP (mRNA)", "setting": "[2]", "result": "significantly increased"},
      {"measurement": "expression of atrial cardiomyocyte marker MLC2a (mRNA)", "setting": "[2]", "result": "significantly increased"},
      {"measurement": "expression of cardiomyocyte marker cTnT (mRNA)", "setting": "[2]", "result": "significantly increased"},
      {"measurement": "expression of mature cardiomyocyte marker cTnI (mRNA)", "setting": "[2]", "result": "significantly increased"},
      {"measurement": "expression of nodal cardiomyocyte marker HCN4 (mRNA)", "setting": "[2]", "result": "significantly decreased"},
      {"measurement": "expression of nodal cardiomyocyte marker TBX18 (mRNA)", "setting": "[2]", "result": "significantly decreased"},
      {"measurement": "expression of vascular smooth muscle cell marker SM22 (mRNA)", "setting": "[2]", "result": "significantly decreased"},
      {"measurement": "expression of vascular smooth muscle cell marker SMA (mRNA)", "setting": "[2]", "result": "significantly decreased"},
      {"measurement": "expression of ventricular cardiomyocyte marker MLC2v (mRNA)", "setting": "[2]", "result": "significantly increased"}
    ]},
    {"molecule": "B1", "values": [
      {"measurement": "day of differentiation on which beating cardiomyocytes were observed", "setting": "[1]", "result": 9, "unit": "days"},
      {"measurement": "cell morphology", "setting": "[1]", "result": "formed in a thickened structure"},
      {"measurement": "morphology of cardiomyocytes (immunostaining)", "setting": "[3]; 5th to 15th day, compared to control group", "result": "agglomerated and thickened morphology"},
      {"measurement": "atrial cardiomyocyte marker MLC2a (immunostaining)", "setting": "[3]; control group also positive", "result": "positive reaction"},
      {"measurement": "expression of ventricular cardiomyocyte marker MLC2v (immunostaining)", "setting": "[3]; in the thickened cells, 5th to 15th day", "result": "increased"},
      {"measurement": "gene expression of atrial cardiomyocyte type marker MLC2a", "setting": "[4]; 5 ng/ml FGF4, 5th to 15th day", "result": "started to increase"},
      {"measurement": "gene expression of nodal cardiomyocyte marker TBX18", "setting": "[4]; 5 ng/ml FGF4, 5th to 15th day", "result": "significantly decreased"},
      {"measurement": "gene expression of vascular smooth muscle cell marker SMA", "setting": "[4]; 5 ng/ml FGF4, 5th to 15th day", "result": "significantly decrease"},
      {"measurement": "gene expression of ventricular cardiomyocyte type marker MLC2v", "setting": "[4]; 5 ng/ml FGF4, 5th to 15th day", "result": "started to increase"},
      {"measurement": "gene expression of atrial cardiomyocyte type marker MLC2a", "setting": "[4]; 10 ng/ml FGF4, 5th to 15th day", "result": "highest"},
      {"measurement": "gene expression of nodal cardiomyocyte marker TBX18", "setting": "[4]; 10 ng/ml FGF4, 5th to 15th day", "result": "significantly decreased"},
      {"measurement": "gene expression of vascular smooth muscle cell marker SMA", "setting": "[4]; 10 ng/ml FGF4, 5th to 15th day", "result": "significantly decrease"},
      {"measurement": "gene expression of ventricular cardiomyocyte type marker MLC2v", "setting": "[4]; 10 ng/ml FGF4, 5th to 15th day", "result": "highest"},
      {"measurement": "gene expression of atrial cardiomyocyte type marker MLC2a", "setting": "[4]; 25 ng/ml FGF4, 5th to 15th day", "result": "highest"},
      {"measurement": "gene expression of nodal cardiomyocyte marker TBX18", "setting": "[4]; 25 ng/ml FGF4, 5th to 15th day", "result": "significantly decreased"},
      {"measurement": "gene expression of vascular smooth muscle cell marker SMA", "setting": "[4]; 25 ng/ml FGF4, 5th to 15th day", "result": "significantly decrease"},
      {"measurement": "gene expression of ventricular cardiomyocyte type marker MLC2v", "setting": "[4]; 25 ng/ml FGF4, 5th to 15th day", "result": "highest"},
      {"measurement": "gene expression of atrial cardiomyocyte type marker MLC2a", "setting": "[4]; 50 ng/ml FGF4, 5th to 15th day", "result": "observed to increase"},
      {"measurement": "gene expression of ventricular cardiomyocyte type marker MLC2v", "setting": "[4]; 50 ng/ml FGF4, 5th to 15th day", "result": "observed to increase"},
      {"measurement": "gene expression of nodal cardiomyocyte marker TBX18", "setting": "[4]; 100 ng/ml FGF4, 5th to 15th day", "result": "significantly decreased"},
      {"measurement": "expression of atrial cardiomyocyte marker ANP (mRNA)", "setting": "[2]", "result": "significantly increased"},
      {"measurement": "expression of atrial cardiomyocyte marker MLC2a (mRNA)", "setting": "[2]", "result": "significantly increased"},
      {"measurement": "expression of mature cardiomyocyte marker cTnI (mRNA)", "setting": "[2]", "result": "significantly increased"},
      {"measurement": "expression of nodal cardiomyocyte marker HCN4 (mRNA)", "setting": "[2]", "result": "significantly decreased"},
      {"measurement": "expression of nodal cardiomyocyte marker TBX18 (mRNA)", "setting": "[2]", "result": "significantly decreased"},
      {"measurement": "expression of vascular smooth muscle cell marker SM22 (mRNA)", "setting": "[2]", "result": "significantly decreased"},
      {"measurement": "expression of vascular smooth muscle cell marker SMA (mRNA)", "setting": "[2]", "result": "significantly decreased"},
      {"measurement": "expression of ventricular cardiomyocyte marker MLC2v (mRNA)", "setting": "[2]", "result": "significantly increased"}
    ]},
    {"molecule": "B2", "values": [
      {"measurement": "day of differentiation on which beating cardiomyocytes were observed", "setting": "[1]", "result": 9, "unit": "days"},
      {"measurement": "cell morphology", "setting": "[1]", "result": "morphological changes similar to the control group"},
      {"measurement": "expression of atrial cardiomyocyte marker MLC2a (mRNA)", "setting": "[2]", "result": "significantly increased"},
      {"measurement": "expression of mature cardiomyocyte marker cTnI (mRNA)", "setting": "[2]", "result": "no effect"},
      {"measurement": "expression of nodal cardiomyocyte marker HCN4 (mRNA)", "setting": "[2]", "result": "significantly increased"},
      {"measurement": "expression of nodal cardiomyocyte marker TBX18 (mRNA)", "setting": "[2]", "result": "significantly increased"},
      {"measurement": "expression of vascular smooth muscle cell marker SMA (mRNA)", "setting": "[2]", "result": "significantly increased"},
      {"measurement": "expression of ventricular cardiomyocyte marker MLC2v (mRNA)", "setting": "[2]", "result": "no effect"}
    ]}
  ]
}
